No end group written: not given here.
Tests used:
human PCNA = molecular target: T1, human PCNA (Homo sapiens, UniProt P12004); experiment: Isothermal titration calorimetry (ITC), PIP peptide titrated into wild-type PCNA; assay type: binding
T1 construct: His6 (C); made in house; host or cells: E. coli Codon Plus BL21(DE3) pLysS
Description: The wild-type and R426D peptides were expressed as GST fusions in E. coli, purified to homogeneity (see Materials and Methods) and used in isothermal titration calorimetry (ITC) assays with human PCNA purified from E. coli.
Recombinant PCNA, PCNA-Y250I, and the PIP peptides (wild-type, R426D) were expressed and purified as described in the Supplementary Materials section—“Expression and purification of recombinant proteins”. The proteins were dialyzed against three 4-litre changes of ITC buffer containing 10 mM sodium phosphate, pH 7.0, and 10 mM NaCl at 4 °C overnight. The concentrations of PCNA and PIP peptides were determined by measuring tyrosine absorption at A280nm. ITC titrations of peptides into PCNA were performed at 23 °C in the ITC buffer (10 mM sodium phosphate, pH 7.0, 10 mM NaCl) using a MicroCal VP-ITC system. The concentrations of injected wild-type and mutant PIP in the syringe varied from 200 to 500 μM, whereas PCNA in the ITC sample cell varied depending on the experiment from 20 to 50 μM PCNA monomer. The protein and peptide samples were degassed before the ITC run. Data analysis was performed using the MicroCal Origin 7.0 software (OriginLab Corporation, Northampton, MA, USA) and all experiments fit the single binding site model.
Supplementary Materials-Expression and purification of recombinant proteins
S1. Expression and purification of GST-PIP fusion proteins in Escherichia coli Wild-type p150 PIP and R426D peptides were constructed as GST-fusion proteins with a tyrosine at the C-terminus of the peptide. The C-terminal tyrosine was added to aid in peptide detection during the purification by measuring the absorbance at 280 nm. The DNA fragments encoding the GST fusion proteins were inserted into a pGEX-TEV vector, which is essentially a modified pGEX-2T vector where the thrombin cleavage site was replaced with a TEV cleavage site. The pGEX-TEV plasmid was digested with BamHI and EcoRI and ligated to DNA fragments encoding either the p150 PIP wild-type and R426D. The plasmids pGEX-TEV-PIP wild type and pGEX-TEV-PIP R426D were con-firmed by DNA sequencing and then expressed in Escherichia coli host strain TOPP2 (Strat-agene) with 100 µg/ml ampicillin to saturation at 37°C. The next day, the saturated cells were diluted to 0.05 OD measured at A600 nm and the cells were grown at 37°C until the cells reach the mid-exponential phase of 0.6-0.8 at OD A600 nm. The cells were then in-duced with 1 mM isopropyl-D-thiogalactopyranoside (IPTG) for 4 h. Eight litres of cell culture were grown each for the wild-type and R426D mutant. The cells were then har-vested by centrifugation in an Avanti J-26XP high-performance centrifuge from Beckman Coulter with a fixed angle rotor (JLA-8.1000) at 9000 x g for 30 min at 4°C. The pellet from 1 litre cells equivalent was lysed in 10 ml of lysis buffer containing 20 mM Tris pH 7.5, 1 M NaCl, 0.2 mM EDTA, 1 mM DTT, 50 µg/ml lysozyme, 1 mM AEBSF and one tablet of cOmplete™ Mini EDTA-free Protease Inhibitor Cocktail Tablets (Roche). The cell pellet was sonicated in the lysis buffer on ice, at power output level 4 with 10 seconds pulse on and 30 seconds off at 6 watts using a Misonix 3000 Ultrasonic cell disruptor and wider probe. The lysate was clarified by centrifugation for 30 min in an Avanti J-26XP with a fixed angle rotor 25.50 at 30966 x g at 4°C. The clarified supernatant was incubated on a nutator for 6 h at 4°C with 10 ml of glutathione-Sepharose (GSH) resin (Amersham) pre-washed and equilibrated with lysis buffer. After incubation the GSH resin was pelleted, the unbound supernatant was removed, and the resin was washed thrice with lysis buffer and twice with Tobacco Etch Virus (TEV) protease buffer (20 mM sodium phosphate pH 6.5, 50 mM NaCl, 2 mM DTT). The peptide was cleaved from the GSH resin by incubating in the presence of TEV protease overnight at 4°C. The next day, the supernatant was har-vested by centrifugation, and the GSH resin was washed twice with 20 mM sodium phos- […]

mouse NIH3T3 cells = experiment: Localization of GFP-p150 relative to PCNA replication foci in mid S-phase NIH3T3 cells; assay type: cell-based; conditions: for localization to heterochromatin foci: DAPI staining
Description: Cells in early S-phase show numerous small PCNA foci distributed throughout the nucleus. These foci can be resolved from each other using super-resolution microscopy but are difficult to resolve from each other by confocal microscopy. This makes protein localization to early S-phase PCNA foci difficult to assess using conventional tools for microscopy. Mid S-phase is the stage when perinuclear and peri-nucleolar chromatin are replicated. The corresponding PCNA foci are relatively large and distant from each other, making co-localization of a protein of interest with PCNA straightforward. Late S-phase is the stage when pericentric heterochromatin replicates. […] Because of these constraints, we focused our attention on cells with patterns of PCNA foci characteristic of mid S-phase. As reported in previous studies, we observed a distinct immunostaining pattern for PCNA with the monoclonal antibody PC10. During mid S-phase, staining of PCNA with PC10 occurred within foci located around the periphery of the nuclear envelope (Figure 4B, top panel, PC10). […] Asynchronously proliferating mouse NIH 3T3 cells were transduced with lentiviral vectors, and expression of wild-type and mutant forms of GFP-p150 was induced with doxycycline. Cells were fixed and permeabilized for PCNA detection with the PC10 monoclonal antibody. Mid-S phase cells were identified based upon their stereotypical pattern of PCNA staining at the nuclear periphery. […] The Pearson’s correlation coefficient of GFP WT-mp150 was 0.6, and 0.25 for the mutant GFP-p150 R426D. This is consistent with previous observations, that when CAF-1 is unable to bind to PCNA, it prematurely associates with pericentric heterochromatin in early and mid S-phase.
To study the localization of GFP CAF-1 p150 wild-type and mutants relative to that of PCNA, cDNAs encoding mouse p150 were cloned into a doxycycline-inducible lentiviral vector pCW-Cas9 plasmid encoding a TetON (minimal CMV) promoter (Addgene plasmid 50661). The Cas9 insert was replaced by wild-type or mutant mouse CAF-1 p150 using the restriction enzymes NheI and BamHI. GFP-p150 wild-type and mutant fusion proteins were excised from the EGFP-C1 vector (Clonetech) using Nhe1 and BamH1 restriction enzymes as previously reported. NheI and BamHI digested fragments were run on 0.8% agarose gel and the corresponding DNA bands: vector—pCW-Cas9 (7036 bp) and inserts—wild-type mp150, R426D (3983 bp) were gel purified using Qiagen DNA extraction spin prep columns. Purified DNAs were ligated using the Takara DNA ligase enzyme, following the manufacturer’s recommended protocol. Positive clones were selected on Luria-Bertani medium containing 100 µg/mL ampicillin, and after DNA isolation, the clones were verified by DNA sequencing. […]

[1] = molecular target: T2, proliferating cell nuclear antigen (PCNA), wild type (human, UniProt P12004 1-261); experiment: ITC; peptide (200 to 500 uM in the syringe) titrated into PCNA (20 to 50 uM monomer in the cell); 10 mM sodium phosphate pH 7.0, 10 mM NaCl, 23 °C; single binding site model; apparent Kd; conditions: both partners purified
T2 construct: human PCNA purified from E. coli; Homo-trimeric ring (88.7 kDa as printed); Human is stated for the ITC; In the functional rows PCNA is the endogenous protein of the human HEK-293 S100 extract; also called human PCNA; source: E. coli, purified
T2 sequence (P12004 whole entry): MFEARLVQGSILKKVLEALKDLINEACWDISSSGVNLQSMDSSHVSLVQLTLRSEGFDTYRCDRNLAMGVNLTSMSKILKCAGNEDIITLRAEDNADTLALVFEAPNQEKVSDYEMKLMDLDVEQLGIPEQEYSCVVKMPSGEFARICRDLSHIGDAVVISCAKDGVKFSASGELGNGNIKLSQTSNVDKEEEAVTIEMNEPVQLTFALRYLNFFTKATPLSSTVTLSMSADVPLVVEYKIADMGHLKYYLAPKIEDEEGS

T1 sequence (P12004 whole entry): as above

Molecule: KAEITDFFQKPKT [CAF-1 PIP R426D, R426D p150 PIP expressed as GST fusion with C-terminal tyrosine, TEV-cleaved and purified, used for ITC]
- Kd (result in words) (human PCNA; ITC at 296 K, 10 mM Na-phosphate (pH 7.0), 10 mM NaCl, R426D): No binding
- heat exchange / binding to wild-type PCNA (human PCNA; ITC, 23 °C, 10 mM sodium phosphate, pH 7.0, 10 mM NaCl): did not observe any heat exchange

B1: GFP-p150 R426D: GFP fusion of mouse CAF-1 p150 with R426D mutation (protein, UniProt Q9QWF0 1-911, looked up, variant R426D)
Chromatin assembly factor 1 …: MLEEPEAATRTAAAVDCKDRPGFPVKRLIQARLPFKRLNLVPKEKVEEDTSPKAAVESKVPDLQLSLGTFESQCHTGSHVGLSTKLVGGQGPIDSFLRATIKPVPSVVIIDLTENCSDIPDSPEGHSELSPDTAGVVTTVEGAAKQQEHSAAELCLLETPSDITCHMEEEPGSPGDPKRTGDCQAGSLQSCPELTPGSRTCPTKELSSWSKAGDLLFIEKVPVVVLEDILATKPSIASLPMMSLDRSVTSESEILESCPEDDSILSHSSTNSSSPTSSPEGPSTPPEHRGGRSSPSTPACRVAKNFVKGSTEKGRSKLHRDREQQREEKEKLREEIRRAKEEARKKKEEEKELKEKERREKREKDEKEKAEKQRLKEEKRKERQEALEAKLEEKRKKEEEKRLREEEKRLREEEKRIKAEKAEITDFFQKPKTPQAPKTLAGSCGKFAPFEIKEHMVLAPRCRAALDQDLCDQLDQLLQQQSVASTFLSDLKSRLPLRSGPTRVCGHDTDIMNRDVVIVESSKVDGVSERKKFGRMKLLQFSENHRPAYWGTWNKKTAIIRPRNPWAQDKDLLDYEVDSDDEWEEEEPGESLSHSEGDEDDDVGEDEDEDDGFFVPHGYLSEDEGVTEECADPENHKVHQKLKAKEWDELLAKGKRFRVLQPVHVGCVWASEAANCTSSDLKLLQQFTACLLDVASPDEPEPGASRREKRDQHILAQLLPLLHGNVNGSKVIIHEFQEQCRRGLLTLPSPTPHLQMPNLEDAVAVPSKARLKRLISENSAYEKRPNFRMCWYVHPEVLKSFGQECLPVPCQWTYITTMPSAPREDSGSASTEGPGQSTPMLLKRKPAATMCITQFMKKRRYDGQVGSGDMDGFQADTEEDEEDDTDCMIIDVPDVGSDVSEAPIPAPTLCK
modifications: GFP fusion
notes: GFP fusion of mouse CAF-1 p150 with R426D mutation
- Pearson’s correlation coefficient (mouse NIH3T3 cells; GFP-p150 vs PCNA (PC10), mid S-phase NIH3T3 cells, doxycycline 2 µg/mL): 0.25
- localization to heterochromatin foci (mouse NIH3T3 cells; mid S-phase): anomalously found largely within the nuclear interior and the large heterochromatic foci
- localization to heterochromatin foci (mouse NIH3T3 cells; mid S-phase, listed as CAF-1 p150 R426D): more localized to the pericentric heterochromatin
- localization to PCNA foci at nuclear periphery (mouse NIH3T3 cells; mid S-phase, confocal microscopy, PC10 staining): did not co-localize with PCNA foci at the nuclear periphery

Molecule: IKAEKAEITRFFQKPKTPQA (also: expressed as a GST fusion) [CAF-1 PIP wild-type peptide (expressed as a GST fusion)]
- Kd [1]: 24 µM
- dH [1]: -1.87 kcal/mol
- stoichiometry N [1]: 0.83

— paper PMC9570017, “Unorthodox PCNA Binding by Chromatin Assembly Factor 1” (International Journal of Molecular Sciences, 2022)
